From US20240343803A1 (SHANDONG SIMCERE BIOPHARMACEUTICAL, published 2024)

Key:
[1] = molecular target: T1, Fusion protein of extracellular domain of human TIGIT and human IgG1 Fc fragment (human TIGIT ECD-hFc) (human); experiment: blocking of TIGIT ECD-hFc binding to CHO-K1 CD155 cells
T1 construct: The entry includes the signal peptide (limits not recoverable) and the human IgG1 Fc
In short: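 Cell-based ELISA on CHO-K1 CD155 cells, cultured overnight, fixed and blocked with 5% skim milk-PBS. Antibodies were premixed for 0.5 h with human TIGIT ECD-hFc (working concentration 30 ng/mL), then added and held at 37° C for 1.5-2 h. Bound TIGIT was detected with HRP secondary antibody (1:5000, 37° C, 1 h) and TMB, read as OD450 nm. IC50 came from the inhibition curves.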

[2] = molecular target: T2, Full-length human TIGIT on CHO-K1 cells (CHO-K1 human TIGIT) (human, UniProt Q495A1 22-244); experiment: cell binding, CHO-K1 human TIGIT high expression strain
T2 construct: NCBI XP_024309156.1; the entry includes the signal peptide (limits not recoverable); The strain (high, medium, low) is named under assay; also called high expression strain 1D2; medium expression strain 2D10
T2 sequence: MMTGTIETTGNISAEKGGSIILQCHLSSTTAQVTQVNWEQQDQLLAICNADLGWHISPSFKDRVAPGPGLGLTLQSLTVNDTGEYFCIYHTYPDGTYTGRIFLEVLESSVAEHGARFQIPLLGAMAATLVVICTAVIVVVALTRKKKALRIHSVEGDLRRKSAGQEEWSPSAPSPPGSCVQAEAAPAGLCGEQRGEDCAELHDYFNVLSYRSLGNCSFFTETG
Method: (§1) The collected cells were washed once with PBS (Hyclone, CAT #SH30256), resuspended to 2×10⁵/50 μL with 1% BSA-PBS. The antibodies were diluted to 80 nM with 1% BSA-PBS (diluted by 3-fold serial dilution for 12 concentration points). The 50 μL cells were then mixed with 50 μL diluted antibodies, and then incubated at 4° C. for 60 minutes. […] After washing twice with PBS, the cell samples were resuspended with 1% BSA-PBS, 100 μL/well and then analyzed by flow cytometry (BD, Canto II). […] [0298] (c) The effect of anti-TIGIT chimeric antibodies blocking the interaction between Bio-CD155-His and CHO-K1 human TIGIT high expression cell strains detected by FACS
(§2) The affinity of the above humanized antibodies with human TIGIT ECD-His is detected by BIAcore, and with reference to the methods of Example 4 (a), (b), and (d), the binding activity of the above humanized antibodies to human TIGIT ECD-mFc, CHO-K1 human TIGIT, CHO-K1 cynomolgus monkey TIGIT and cynomolgus monkey TIGIT ECD-mFc, and the effect of the humanized antibodies blocking the binding between human TIGIT ECD-mFc and CHO-K1 CD155 are detected, the results are shown in Table 18.

[3] = molecular target: T3, Fusion protein of extracellular domain of human TIGIT and mouse IgG2a Fc fragment (human TIGIT ECD-mFc) (human); experiment: ELISA, human TIGIT ECD-mFc
T3 construct: The entry includes the signal peptide (limits not recoverable) and the mouse IgG2a Fc
T3 chain: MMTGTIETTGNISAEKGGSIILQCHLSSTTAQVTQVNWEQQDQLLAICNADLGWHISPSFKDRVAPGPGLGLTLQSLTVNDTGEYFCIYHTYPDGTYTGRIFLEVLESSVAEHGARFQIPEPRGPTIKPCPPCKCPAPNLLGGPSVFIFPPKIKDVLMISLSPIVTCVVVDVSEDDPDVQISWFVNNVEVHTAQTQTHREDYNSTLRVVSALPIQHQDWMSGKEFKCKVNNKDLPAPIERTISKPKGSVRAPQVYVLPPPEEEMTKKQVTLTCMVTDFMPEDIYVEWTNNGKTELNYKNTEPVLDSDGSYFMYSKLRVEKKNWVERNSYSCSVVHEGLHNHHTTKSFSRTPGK
Method: (§3) After discarding the coating solution, the plate was added with 5% skim milk powder (Sangon Biotech, CAT #A600669-0250)-PBS, 250 μL/well, and incubated at 37° C. for 2-4 hours. […] The enzyme-labeled plate was then washed with 0.05% Tween 20-PBS for 3 times on the Microplate Washer, added with tested antibodies diluted to 13 nM with 1% BSA (diluted by 3-fold serial dilution for 12 concentration points), 50 μL/well, and incubated at 37° C. for 1.5-2 hours. The plate was washed with 0.05% Tween 20-PBS for 3 times on the Microplate Washer, then added with HRP enzyme-labeled antibodies (Merck, CAT #AP113P) diluted with 1% BSA (Sangon Biotech, CAT #A500023-0100)-PBS at a dilution ratio of 1:5000, 50 μL/well, and incubated at 37° C. for 1 hour. After washing 3 times with 0.05% Tween 20-PBS on the Microplate Washer, the plate was added with TMB chromogenic solution (KPL, CAT #52-00-03), 50 μL/well, and incubated at room temperature for 7-10 minutes. 1M HCL, 50 μL/well, was then added into the plate to terminate the reaction, and the OD450 nm was read by a microplate reader (Biotek, Powerwave HT). […] (b) The binding activity of anti-TIGIT chimeric antibodies to CHO-K1 human TIGIT (cells with high, medium and low expression levels) and CHO-KI cynomolgus monkey TIGIT detected by FACS.
as §2

[4] = molecular target: T4, Fusion protein of extracellular domain of cynomolgus monkey TIGIT and mouse IgG2a Fc fragment (cynomolgus … (cynomolgus monkey)); experiment: ELISA, cynomolgus monkey TIGIT ECD-mFc
T4 construct: The entry includes the signal peptide (limits not recoverable) and the mouse IgG2a Fc
Method: as §3, §2

[5] = molecular target: T5, Fusion protein of extracellular domain of human TIGIT and His-tag (human TIGIT ECD-his) (human); experiment: BIAcore
T5 chain: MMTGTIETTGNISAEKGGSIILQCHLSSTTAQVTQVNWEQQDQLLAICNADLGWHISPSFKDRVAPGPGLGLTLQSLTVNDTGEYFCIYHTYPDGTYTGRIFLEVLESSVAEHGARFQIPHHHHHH

[6] = molecular target: T5, Fusion protein of extracellular domain …; experiment: BIAcore; KD ratio to TIGIT-CHI-006
[7] = molecular target: T6, Full-length cynomolgus monkey TIGIT on CHO-K1 cells (CHO-K1 cynomolgus monkey TIGIT) (cynomolgus monkey); experiment: cell binding, CHO-K1 cynomolgus monkey TIGIT
T6 construct: NCBI XP_015300911.1
T6 sequence (chain, as listed by the source limits assumed): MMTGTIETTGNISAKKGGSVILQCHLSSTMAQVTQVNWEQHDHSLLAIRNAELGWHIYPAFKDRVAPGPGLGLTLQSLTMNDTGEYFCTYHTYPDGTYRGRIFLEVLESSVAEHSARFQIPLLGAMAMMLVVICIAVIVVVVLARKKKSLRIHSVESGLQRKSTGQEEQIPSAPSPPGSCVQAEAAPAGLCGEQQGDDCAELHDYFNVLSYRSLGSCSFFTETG
Method: as §1, §2

T1 sequence (chain, as listed by the source limits assumed): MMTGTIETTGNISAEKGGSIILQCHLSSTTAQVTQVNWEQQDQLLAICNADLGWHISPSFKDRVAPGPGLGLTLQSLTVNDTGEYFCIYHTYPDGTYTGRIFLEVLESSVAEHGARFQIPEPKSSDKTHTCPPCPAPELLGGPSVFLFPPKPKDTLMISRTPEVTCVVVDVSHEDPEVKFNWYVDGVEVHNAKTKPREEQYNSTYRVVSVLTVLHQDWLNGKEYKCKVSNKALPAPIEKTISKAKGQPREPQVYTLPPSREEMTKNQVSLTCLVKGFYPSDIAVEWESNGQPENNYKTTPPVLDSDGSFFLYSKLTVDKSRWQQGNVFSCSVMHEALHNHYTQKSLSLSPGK

B1: TIGIT-006-H3L1 (antibody, V domains shown)
VH: EVQLQESGPGLVKPSETLSLTCAVSGYSMTSDYWNWIRQPPGKKLEWIGYISYSGRTYYNPSLKSRVTISRDTSKNQFSLKLSSVTAADTAVYYCARGDYSNYGGAMYDWGQGTTVTVSS
VL: DIVMTQTPLSLSVTPGQPASISCRASQGVSTTIAWYLQKPGQSPQLLIYSASYRYTGVPDRFSGSGSGTDFTLKISRVEAEDVGVYYCQQYYSSPFTFGGGTKVEIK
notes: Humanized anti-TIGIT antibody
[1]
  IC50: 0.637 nM
[2]
  EC50: 0.0468 nM
[3]
  EC50: 0.0096 nM
[4]
  EC50: 2.81 nM
[5]
  Kd: 0.705 nM
  koff: 0.000241 s⁻¹
  kon: 342000 M⁻¹ s⁻¹
[6]
  Fold change vs chimeric antibodies (KD): 9.11 fold

B2: TIGIT-006-H3L2 (antibody, V domains shown)
VH: EVQLQESGPGLVKPSETLSLTCAVSGYSMTSDYWNWIRQPPGKKLEWIGYISYSGRTYYNPSLKSRVTISRDTSKNQFSLKLSSVTAADTAVYYCARGDYSNYGGAMYDWGQGTTVTVSS
VL: DIVMTQTPLSLSVTPGQPASISCRASQGVSTTIAWYQQKPGQSPKLLIYSASYRYTGVPDRFSGSGSGTDFTLKISRVEAEDVGVYYCQQYYSSPFTFGGGTKVEIK
notes: Humanized anti-TIGIT antibody
[7]
  EC50: 1.38 nM
[1]
  IC50: 0.709 nM
[2]
  EC50: 0.0494 nM
[3]
  EC50: 0.0099 nM
[4]
  EC50: 7.44 nM
[5]
  Kd: 0.748 nM
  koff: 0.000208 s⁻¹
  kon: 279000 M⁻¹ s⁻¹
[6]
  Fold change vs chimeric antibodies (KD): 9.66 fold

B3: TIGIT-006-H4L2 (antibody, V domains shown)
VH: EVQLQESGPGLVKPSETLSLTCAVSGYSMTSDYWNWIRQPPGKKLEWMGYISYSGRTYYNPSLKSRITISRDTSKNQFSLKLSSVTAADTAVYYCARGDYSNYGGAMYDWGQGTTVTVSS
VL: DIVMTQTPLSLSVTPGQPASISCRASQGVSTTIAWYQQKPGQSPKLLIYSASYRYTGVPDRFSGSGSGTDFTLKISRVEAEDVGVYYCQQYYSSPFTFGGGTKVEIK
notes: Humanized anti-TIGIT antibody
[1]
  IC50: 0.671 nM
[2]
  EC50: 0.0251 nM
[3]
  EC50: 0.0113 nM
[4]
  EC50: 0.997 nM
[5]
  Kd: 0.658 nM
  koff: 0.000221 s⁻¹
  kon: 337000 M⁻¹ s⁻¹
[6]
  Fold change vs chimeric antibodies (KD): 8.5 fold

B4: TIGIT-006-H4L1 (antibody, V domains shown)
VH: EVQLQESGPGLVKPSETLSLTCAVSGYSMTSDYWNWIRQPPGKKLEWMGYISYSGRTYYNPSLKSRITISRDTSKNQFSLKLSSVTAADTAVYYCARGDYSNYGGAMYDWGQGTTVTVSS
VL: DIVMTQTPLSLSVTPGQPASISCRASQGVSTTIAWYLQKPGQSPQLLIYSASYRYTGVPDRFSGSGSGTDFTLKISRVEAEDVGVYYCQQYYSSPFTFGGGTKVEIK
notes: Humanized anti-TIGIT antibody
[1]
  IC50: 0.704 nM
[2]
  EC50: 0.0349 nM
[3]
  EC50: 0.0086 nM
[4]
  EC50: 1.53 nM
[5]
  Kd: 0.657 nM
  koff: 0.000258 s⁻¹
  kon: 393000 M⁻¹ s⁻¹
[6]
  Fold change vs chimeric antibodies (KD): 8.49 fold

B5: TIGIT-006-H2L2 (antibody, V domains shown)
VH: EVQLQESGPGLVKPSETLSLTCAVSGYSMTSDYWNWIRQPPGKGLEWIGYISYSGRTYYNPSLKSRVTISRDTSKNQFSLKLSSVTAADTAVYYCARGDYSNYGGAMYDWGQGTTVTVSS
VL: DIVMTQTPLSLSVTPGQPASISCRASQGVSTTIAWYQQKPGQSPKLLIYSASYRYTGVPDRFSGSGSGTDFTLKISRVEAEDVGVYYCQQYYSSPFTFGGGTKVEIK
notes: Humanized anti-TIGIT antibody
[1]
  IC50: 0.904 nM
[2]
  EC50: 0.0444 nM
[3]
  EC50: 0.0117 nM
[4]
  EC50: 3.38 nM
[5]
  Kd: 0.893 nM
  koff: 0.000324 s⁻¹
  kon: 363000 M⁻¹ s⁻¹
[6]
  Fold change vs chimeric antibodies (KD): 11.5 fold

B6: TIGIT-006-H1L2 (antibody, V domains shown)
VH: EVQLQESGPGLVKPSETLSLTCAVSGYSITSDYWNWIRQPPGKGLEWIGYISYSGRTYYNPSLKSRVTISRDTSKNQFSLKLSSVTAADTAVYYCARGDYSNYGGAMYDWGQGTTVTVSS
VL: DIVMTQTPLSLSVTPGQPASISCRASQGVSTTIAWYQQKPGQSPKLLIYSASYRYTGVPDRFSGSGSGTDFTLKISRVEAEDVGVYYCQQYYSSPFTFGGGTKVEIK
notes: Humanized anti-TIGIT antibody
[7]
  binding result: no binding
[1]
  IC50: 1.58 nM
[2]
  EC50: 0.105 nM
[3]
  EC50: 0.0183 nM
[4]
  binding result: no binding
[5]
  Kd: 5.71 nM
  koff: 0.000666 s⁻¹
  kon: 117000 M⁻¹ s⁻¹
[6]
  Fold change vs chimeric antibodies (KD): 73.8 fold

B7: TIGIT-006-H2L1 (antibody, V domains shown)
VH: EVQLQESGPGLVKPSETLSLTCAVSGYSMTSDYWNWIRQPPGKGLEWIGYISYSGRTYYNPSLKSRVTISRDTSKNQFSLKLSSVTAADTAVYYCARGDYSNYGGAMYDWGQGTTVTVSS
VL: DIVMTQTPLSLSVTPGQPASISCRASQGVSTTIAWYLQKPGQSPQLLIYSASYRYTGVPDRFSGSGSGTDFTLKISRVEAEDVGVYYCQQYYSSPFTFGGGTKVEIK
notes: Humanized anti-TIGIT antibody
[7]
  EC50: 0.342 nM
[1]
  IC50: 0.528 nM
[2]
  EC50: 0.0383 nM
[3]
  EC50: 0.0106 nM
[4]
  EC50: 2.88 nM
[5]
  Kd: 0.95 nM
  koff: 0.000382 s⁻¹
  kon: 403000 M⁻¹ s⁻¹
[6]
  Fold change vs chimeric antibodies (KD): 12.3 fold

B8: TIGIT-006-H1L1 (antibody, V domains shown)
VH: EVQLQESGPGLVKPSETLSLTCAVSGYSITSDYWNWIRQPPGKGLEWIGYISYSGRTYYNPSLKSRVTISRDTSKNQFSLKLSSVTAADTAVYYCARGDYSNYGGAMYDWGQGTTVTVSS
VL: DIVMTQTPLSLSVTPGQPASISCRASQGVSTTIAWYLQKPGQSPQLLIYSASYRYTGVPDRFSGSGSGTDFTLKISRVEAEDVGVYYCQQYYSSPFTFGGGTKVEIK
notes: Humanized anti-TIGIT antibody
[7]
  binding result: no binding
[1]
  IC50: 1.53 nM
[2]
  EC50: 0.0702 nM
[3]
  EC50: 0.0186 nM
[4]
  binding result: no binding
[5]
  Kd: 6.21 nM
  koff: 0.000757 s⁻¹
  kon: 122000 M⁻¹ s⁻¹
[6]
  Fold change vs chimeric antibodies (KD): 80.3 fold
